Changes are numbered by the printed parent chain. Numbers in names are those of the source.
T1: monkey MSLN on HEK293T-monkey MSLN recombinant cells (monkey)
T1 construct: Full-length precursor as transfected; processing on the cell is not described; also called HEK293-monkey MSLN
T1 chain: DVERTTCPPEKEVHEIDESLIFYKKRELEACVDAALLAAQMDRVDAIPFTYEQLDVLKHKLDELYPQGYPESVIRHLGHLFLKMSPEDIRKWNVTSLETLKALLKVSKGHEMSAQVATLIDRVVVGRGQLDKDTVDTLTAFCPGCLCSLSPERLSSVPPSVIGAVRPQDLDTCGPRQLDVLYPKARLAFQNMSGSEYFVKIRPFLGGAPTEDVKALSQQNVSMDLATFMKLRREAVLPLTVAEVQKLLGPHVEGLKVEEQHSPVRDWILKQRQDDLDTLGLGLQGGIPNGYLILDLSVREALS

B1: F7.33.24-H1 (scFv, not shown: small tags and cut ends)
scFv: EVQLVQSGAEVKKPGASVKVSCKASGYTFTSYWMHWVRQAPGQRLEWMGNVNPSNGGSNYNEKFKNRVTITVDKSASTAYMELSSLRSEDTAVYYCAPHYIGSRPGFAYWGQGTLVTVSSGGGGSGGGGSGGGGSDIVMTQSPDSLAVSLGERATINCKASQNVGTNIAWYQQKPGQSPKALIYSASYRYSGVPDRFSGSGSGTDFTLTISSLQAEDVAVYYCQQYNSYPLTFGGGTKVEIK
notes: also called S009-F7.33.24 humanized antibody VH1 + VL1
B2: F7.33.24-H4 (scFv, not shown: small tags and cut ends)
scFv: B1 scFv with N55S
notes: also called S009-F7.33.24 humanized antibody VH1a + VL1
B3: F7.33.24-H10 (scFv, not shown: small tags and cut ends)
scFv: B1 scFv with R44G, G56A
notes: also called S009-F7.33.24 humanized antibody VH2a + VL1
B4: F7.33.24-H7 (scFv, not shown: small tags and cut ends)
scFv: B1 scFv with R44G
notes: also called S009-F7.33.24 humanized antibody VH2 + VL1
B5: F7.33.24-H3 (scFv, not shown: small tags and cut ends)
scFv: EVQLVQSGAEVKKPGASVKVSCKASGYTFTSYWMHWVRQAPGQRLEWMGNVNPSNGGSNYNEKFKNRVTITVDKSASTAYMELSSLRSEDTAVYYCAPHYIGSRPGFAYWGQGTLVTVSSGGGGSGGGGSGGGGSDIVMTQTPLSLSVTPGQPASISCKASQNVGTNIAWYQQKPGQSPQALIYSASYRYSGVPDRFSGSGSGTDFTLKISRVEAEDVGVYYCQQYNSYPLTFGGGTKVEIK
notes: also called S009-F7.33.24 humanized antibody VH1 + VL3
B6: F7.33.24-H6 (scFv, not shown: small tags and cut ends)
scFv: B5 scFv with N55S
notes: also called S009-F7.33.24 humanized antibody VH1a + VL3
B7: Tab110 (scFv, not shown: small tags and cut ends)
scFv: QQQLEESGGGLVKPEGSLTLTCKASGFDLGFYFYACWVRQAPGKGLEWIACIYTAGSGSTYYASWAKGRFTISKASSTTVTLQMTSLAAADTATYFCARSTANTRSTYYLNLWGPGTLVTVSSGGGGSGGGGSGGGGSDVVMTQTPASVSEPVGGTVTIKCQASQRISSYLSWYQQKPGQRPKLLIFGASTLASGVPSRFKGSGSGTEYTLTISDLECADAATYYCQSYAYFDSNNWHAFGGGTEVVV
notes: also called YP218 VH-(G4S)3-VL-his antibody; positive control
B8: F7.44.20-H5 (scFv, not shown: small tags and cut ends)
scFv: EVQLVQSGAEVKKPGASVKVSCKASGYTFTDYNMDWVRQAPGQGLEWMGDINPSTGGTIYNQKFQGRVTMTEDKSTSTVYMELSSLRSEDTAVYYCARRRIGTGYFDVWGQGTTVTVSSGGGGSGGGGSGGGGSEIVLTQSPDFQSVTPKEKVTITCSASSSVISSYLSWYQQKPDQSPKLLIYRTSNLASGVPSRFSGSGSGTDFTLTINSLEAEDAATYYCHQWSSFPYTFGGGTKVEIK
notes: also called S009-F7.44.20 humanized antibody VH1a + VL1
B9: F7.44.20-H9 (scFv, not shown: small tags and cut ends)
scFv: B8 scFv with Q65N, T76A
notes: also called S009-F7.44.20 humanized antibody VH2 + VL1

Molecular target: T2, human MSLN on OVCAR3 tumor cells (human, UniProt Q13421 296-598)
T2 construct: whole, on cells; also called human MSLN protein
T2 sequence (Q13421 other isoform, or with tags, fused parts or gaps): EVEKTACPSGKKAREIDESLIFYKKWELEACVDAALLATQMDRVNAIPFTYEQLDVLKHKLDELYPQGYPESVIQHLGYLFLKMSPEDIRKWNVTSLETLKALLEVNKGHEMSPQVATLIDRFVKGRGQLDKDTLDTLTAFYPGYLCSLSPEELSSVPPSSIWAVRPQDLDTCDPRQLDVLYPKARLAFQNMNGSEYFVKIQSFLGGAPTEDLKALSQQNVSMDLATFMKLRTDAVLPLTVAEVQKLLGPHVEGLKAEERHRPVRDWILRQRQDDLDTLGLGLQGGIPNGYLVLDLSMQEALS
Test: FACS, OVCAR3 cells

EC50 [nM] | Maximum_MFI [MFI] | Binder
1.05 | 2180 | B1
3.04 | 2230 | B2
3.04 | 2090 | B3
2 | 2190 | B4
2.06 | 2370 | B5
1.08 | 2300 | B6

Molecular target: T3, human MSLN-R3 on HEK293T-hMSLN-R3 recombinant cells (human, UniProt Q13421 487-606)
T3 construct: the C-terminal limit is uncertain; also called human MSLN-R3 membrane protein
T3 sequence (Q13421 495-614): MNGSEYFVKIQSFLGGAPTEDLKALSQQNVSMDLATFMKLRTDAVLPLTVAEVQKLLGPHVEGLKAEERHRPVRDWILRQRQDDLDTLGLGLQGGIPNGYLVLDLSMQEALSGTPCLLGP
Test: FACS, HEK293T-hMSLN-R3 cells

Maximum_MFI [MFI] | EC50 [nM] | Binder
461 |  | B7
2190 | 2.55 | B1
1960 | 2.15 | B2
1560 | 1.1 | B3
1650 | 1.61 | B4
1970 | 2.89 | B5
1540 | 1.01 | B6

Molecular target: T3, human MSLN-R3 on HEK293T-hMSLN-R3 …
Test: FACS, HEK293T-hMSLN-R3 cells
Remark: another data set of the same source

Maximum_MFI [MFI] | EC50 [nM] | Binder
461 |  | B7
1700 | 0.94 | B8
1560 | 1.67 | B9

Molecular target: T1, monkey MSLN on HEK293T-monkey MSLN …
Test: FACS, HEK293T-monkey MSLN cells

EC50 [nM] | Maximum_MFI [MFI] | Binder
4.55 | 7780 | B8
8.05 | 7460 | B9

Molecular target: T1, monkey MSLN on HEK293T-monkey MSLN …
Test: FACS, HEK293T-monkey MSLN cells
Remark: another data set of the same source

EC50 [nM] | Maximum_MFI [MFI] | Binder
4.16 | 9050 | B1
5.23 | 9380 | B2
3.94 | 8620 | B3
5 | 8820 | B4
5.33 | 8310 | B5
3.54 | 8440 | B6

Molecular target: T4, human MSLN-hFc recombinant protein (human, UniProt Q13421 296-580)
T4 construct: Captured by an anti-human IgG antibody on the chip; also called human MSLN protein; Acro MSN-H5253
T4 sequence (Q13421 other isoform, or with tags, fused parts or gaps): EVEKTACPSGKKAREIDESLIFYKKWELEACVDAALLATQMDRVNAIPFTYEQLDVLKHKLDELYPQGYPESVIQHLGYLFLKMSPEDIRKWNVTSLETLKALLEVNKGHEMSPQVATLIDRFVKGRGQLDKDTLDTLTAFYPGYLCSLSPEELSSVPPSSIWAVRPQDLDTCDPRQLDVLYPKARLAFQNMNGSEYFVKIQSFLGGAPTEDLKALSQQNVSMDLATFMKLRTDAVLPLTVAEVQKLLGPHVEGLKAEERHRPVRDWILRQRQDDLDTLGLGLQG
Test: SPR (Biacore 8K), MSLN-hFc captured, antibody injected

Kd [nM] | koff [s⁻¹] | kon [M⁻¹ s⁻¹] | Binder
0.709 | 0.000313 | 442000 | B8
0.464 | 0.000208 | 449000 | B9

Molecular target: T2, human MSLN on OVCAR3 tumor cells
Test: FACS, OVCAR3 cells
Remark: another data set of the same source

EC50 [nM] | Maximum_MFI [MFI] | Binder
1 | 1960 | B8
1.61 | 2220 | B9

— patent publication US20250250357A1 (NANJING ZAIMING PHARMACEUTICAL, published 2025)
